This assay addresses murine GM-CSF receptor (on FDC-P1 cells) (murine) (UniProt Q00941). The experiment in a line: cell-based or functional assay.
Sequence of UniProt Q00941 (Q00941 30-388, chain 1 of 2): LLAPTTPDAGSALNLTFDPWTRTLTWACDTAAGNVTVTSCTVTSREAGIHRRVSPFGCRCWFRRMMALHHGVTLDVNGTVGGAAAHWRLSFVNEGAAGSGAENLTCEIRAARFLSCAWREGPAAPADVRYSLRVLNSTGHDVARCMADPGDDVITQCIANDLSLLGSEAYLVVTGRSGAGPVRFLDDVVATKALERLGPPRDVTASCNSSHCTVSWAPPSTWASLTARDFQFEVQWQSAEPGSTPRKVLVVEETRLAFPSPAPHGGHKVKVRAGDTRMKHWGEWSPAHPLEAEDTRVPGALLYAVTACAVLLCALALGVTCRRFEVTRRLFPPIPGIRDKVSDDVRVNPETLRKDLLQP
Sequence of UniProt Q00941 (P26955 23-896, chain 2 of 2, further chain): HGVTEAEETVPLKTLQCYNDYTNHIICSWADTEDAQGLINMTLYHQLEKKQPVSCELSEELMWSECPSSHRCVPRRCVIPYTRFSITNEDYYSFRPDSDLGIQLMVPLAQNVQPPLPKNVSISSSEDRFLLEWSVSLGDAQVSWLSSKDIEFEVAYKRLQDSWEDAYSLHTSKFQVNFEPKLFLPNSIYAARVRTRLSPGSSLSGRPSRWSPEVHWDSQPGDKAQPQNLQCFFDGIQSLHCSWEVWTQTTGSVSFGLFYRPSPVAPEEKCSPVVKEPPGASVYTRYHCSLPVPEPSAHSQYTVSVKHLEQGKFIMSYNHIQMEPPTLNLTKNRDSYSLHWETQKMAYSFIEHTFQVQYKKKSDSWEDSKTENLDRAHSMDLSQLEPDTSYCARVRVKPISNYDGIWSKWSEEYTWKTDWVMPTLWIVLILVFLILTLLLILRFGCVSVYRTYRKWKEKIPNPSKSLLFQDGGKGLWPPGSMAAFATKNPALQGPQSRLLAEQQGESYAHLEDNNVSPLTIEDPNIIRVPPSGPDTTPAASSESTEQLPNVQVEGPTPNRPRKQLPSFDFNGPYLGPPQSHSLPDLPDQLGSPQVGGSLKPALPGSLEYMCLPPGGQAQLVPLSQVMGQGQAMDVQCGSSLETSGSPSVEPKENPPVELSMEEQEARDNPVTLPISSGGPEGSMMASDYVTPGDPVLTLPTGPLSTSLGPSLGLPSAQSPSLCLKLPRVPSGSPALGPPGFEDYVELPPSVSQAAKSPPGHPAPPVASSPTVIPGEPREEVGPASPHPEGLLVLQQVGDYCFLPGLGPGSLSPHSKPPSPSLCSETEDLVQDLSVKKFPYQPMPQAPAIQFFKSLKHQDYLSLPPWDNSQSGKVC

For “GPI-GM-CSF (murine GM-CSF fused to the S. cerevesiae Gas1 GPI modification signal sequence) (from UniProt P01587 18-141; P22146 474-528) (ligand; the values are: proliferation increase over soluble GM-CSF)”, the proliferation of FDC-P1 cells (Biotrak Cell Proliferation ELISA, BrdU) was 25%.

These data come from patent US20040091503A1.
